Results from paper PMC11686323 (Communications Biology, 2024).

Molecular target: the molecule itself
Assay: cryo-EM structure

B1: phosphoglucomutase GlmM of Lactococcus lactis (enzyme, UniProt A2RIG0 1-452, looked up)
chain: MGKYFGTDGVRGEANVELTPEMAFKLGRFGGYVLSQHELETPKVYVGRDTRISGQMLASSLISGLLSVGIEVYDLGVIATPGVAYLVKKDGASAGVMISASHNPALDNGIKFFGGDGYKLEDEKELEIEALIDAKEDTLPRPSAQGLGMLHDYIEGVRKYQAFLKTTAEGDFEGYNVVLDTANGASYTSARAVFADLKANLTVIGENPDGLNINVKVGSTHPEAMAKKVVETGSDLGLAFDGDADRLIAVDENGEIVDGDKIMFIVGKYLLEQGKLAQDTLVTTVMSNLGFHLALEEAGINSVITAVGDRYVVEEMKKNNYNFGGEQSGHMIFLDYNTTGDGQLSAIQLLKVMRETGKTLSELASEVTIYPQKLVNVRVKDNAAKKSAMDVPAIQKVISEMETSMNGKGRILVRPSGTEPLLRVMAEAPTHEQVDHVVDTIVEVVEEEIGVK
With B1 the “stoichiometry N” value was 2.
